From patent US20220062373A1

Molecular target: Endogenous murine CD206 on M2-polarized bone marrow-derived macrophages (mouse) (UniProt Q61830)
Experiment: LC-MS/MS proteomics of CD206 complexes pulled down with biotinylated RP-182 from M2 BMDMs

Endogenous murine CD206 on M2-polarized bone marrow-derived macrophages (mouse), sequence (Q61830 20-1456): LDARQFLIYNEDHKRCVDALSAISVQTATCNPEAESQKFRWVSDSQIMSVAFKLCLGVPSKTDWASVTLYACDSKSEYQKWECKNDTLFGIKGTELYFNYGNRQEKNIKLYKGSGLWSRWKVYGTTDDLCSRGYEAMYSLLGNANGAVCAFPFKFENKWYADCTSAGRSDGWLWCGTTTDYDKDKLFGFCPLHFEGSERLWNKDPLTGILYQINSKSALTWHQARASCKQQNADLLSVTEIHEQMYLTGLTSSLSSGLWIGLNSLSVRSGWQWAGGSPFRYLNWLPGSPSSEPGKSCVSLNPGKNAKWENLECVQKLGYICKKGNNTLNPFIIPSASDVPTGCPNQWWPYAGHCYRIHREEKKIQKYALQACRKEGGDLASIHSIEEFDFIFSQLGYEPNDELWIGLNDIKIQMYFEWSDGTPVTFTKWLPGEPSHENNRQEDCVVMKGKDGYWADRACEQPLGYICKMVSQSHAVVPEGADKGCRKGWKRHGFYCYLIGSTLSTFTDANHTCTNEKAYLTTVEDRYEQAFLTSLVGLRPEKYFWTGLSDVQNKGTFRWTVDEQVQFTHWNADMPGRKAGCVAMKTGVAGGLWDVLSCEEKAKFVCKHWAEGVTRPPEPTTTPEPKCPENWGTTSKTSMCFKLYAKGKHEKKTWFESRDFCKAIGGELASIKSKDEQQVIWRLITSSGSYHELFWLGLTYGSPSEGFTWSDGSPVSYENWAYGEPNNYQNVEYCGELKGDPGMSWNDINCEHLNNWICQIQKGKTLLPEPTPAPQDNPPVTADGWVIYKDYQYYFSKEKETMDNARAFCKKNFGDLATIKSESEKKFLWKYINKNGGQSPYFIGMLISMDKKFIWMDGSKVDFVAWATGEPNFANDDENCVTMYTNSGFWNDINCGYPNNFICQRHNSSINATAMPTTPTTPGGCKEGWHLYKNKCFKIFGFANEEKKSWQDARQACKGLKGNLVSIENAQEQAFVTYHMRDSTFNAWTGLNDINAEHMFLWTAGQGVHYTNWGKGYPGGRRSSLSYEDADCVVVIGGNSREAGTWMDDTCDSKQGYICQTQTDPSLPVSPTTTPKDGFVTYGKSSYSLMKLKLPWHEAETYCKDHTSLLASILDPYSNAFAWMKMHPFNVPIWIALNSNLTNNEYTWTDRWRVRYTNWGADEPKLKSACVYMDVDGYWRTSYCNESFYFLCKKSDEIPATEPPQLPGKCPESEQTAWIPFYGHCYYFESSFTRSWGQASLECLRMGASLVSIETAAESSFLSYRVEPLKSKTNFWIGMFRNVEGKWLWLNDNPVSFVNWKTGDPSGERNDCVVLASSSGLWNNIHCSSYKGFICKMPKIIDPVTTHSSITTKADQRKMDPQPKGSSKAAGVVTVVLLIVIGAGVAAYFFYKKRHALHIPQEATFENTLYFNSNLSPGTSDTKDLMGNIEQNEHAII

Substance	fold enriched in CD206 complexes against control
IQ motif containing GTPase activating protein 1 (IQGAP1) (from UniProt Q9JKF1 2-1657)	9 fold
IQ motif containing GTPase activating protein 2 (IQGAP2) (from UniProt Q3UQ44 1-1575)	76 fold
